In the assay the target is T1, SH2-containing inositol-5-phosphatase (SHIP), mouse, endogenous protein in NK cell lysates (mouse, UniProt Q9ES52 1-1191, limits assumed).
T1 construct: Endogenous protein co-immunoprecipitated from NK-enriched C57BL6/J splenocyte lysates (modified RIPA buffer) and detected by Western blot with anti-SHIP P2C6; also called SH2-containing Inositol Polyphosphatase; 135/145 kD SHIP isoforms
T1 sequence (looked up): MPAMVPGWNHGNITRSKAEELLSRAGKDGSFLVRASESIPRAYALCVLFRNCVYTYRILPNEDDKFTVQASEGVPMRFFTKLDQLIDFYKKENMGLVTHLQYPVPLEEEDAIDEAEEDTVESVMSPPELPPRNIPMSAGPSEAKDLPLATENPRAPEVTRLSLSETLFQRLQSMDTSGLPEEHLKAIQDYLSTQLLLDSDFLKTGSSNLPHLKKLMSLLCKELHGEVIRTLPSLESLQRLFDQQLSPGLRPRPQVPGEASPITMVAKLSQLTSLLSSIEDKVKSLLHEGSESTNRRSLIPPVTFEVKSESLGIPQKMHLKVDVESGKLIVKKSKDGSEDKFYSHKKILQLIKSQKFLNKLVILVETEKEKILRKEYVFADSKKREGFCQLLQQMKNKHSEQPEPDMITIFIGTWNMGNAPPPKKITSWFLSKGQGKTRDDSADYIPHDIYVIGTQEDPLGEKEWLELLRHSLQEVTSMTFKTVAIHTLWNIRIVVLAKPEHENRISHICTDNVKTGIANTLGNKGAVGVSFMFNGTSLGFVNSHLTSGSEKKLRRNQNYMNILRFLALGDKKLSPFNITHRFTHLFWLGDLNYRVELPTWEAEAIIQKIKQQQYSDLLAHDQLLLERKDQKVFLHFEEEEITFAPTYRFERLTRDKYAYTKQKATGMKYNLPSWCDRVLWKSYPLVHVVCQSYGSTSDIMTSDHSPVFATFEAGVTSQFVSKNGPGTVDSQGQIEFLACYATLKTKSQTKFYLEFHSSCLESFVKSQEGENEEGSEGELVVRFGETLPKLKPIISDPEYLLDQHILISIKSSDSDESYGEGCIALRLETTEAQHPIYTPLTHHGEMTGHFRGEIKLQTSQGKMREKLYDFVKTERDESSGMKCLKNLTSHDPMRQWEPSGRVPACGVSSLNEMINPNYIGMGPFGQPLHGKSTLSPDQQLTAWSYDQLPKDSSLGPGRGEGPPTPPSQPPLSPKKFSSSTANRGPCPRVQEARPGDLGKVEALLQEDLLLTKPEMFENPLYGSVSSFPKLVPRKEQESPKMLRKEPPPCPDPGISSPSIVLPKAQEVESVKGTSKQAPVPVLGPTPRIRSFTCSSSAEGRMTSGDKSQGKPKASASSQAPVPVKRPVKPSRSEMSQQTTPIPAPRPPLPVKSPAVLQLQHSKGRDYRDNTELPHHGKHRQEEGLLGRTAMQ
The experiment in a line: co-immunoprecipitation from NK-enriched splenocyte lysates, Western blot with anti-SHIP P2C6. An excerpt:
Equal quantities of protein from cells lysates prepared from SHIP^{+/+} and SHIP^{-/-} NK cells are resolved on a 4-12% Tris-Bis polyacrylamide gel (Invitrogen), transferred to a nitrocellulose membrane (Amersham) and the filters probed with an anti-Akt-P(Threo) antibody (Cell Signaling) at a 1:1000 dilution. […] The blot is then stripped and reprobed in a similar manner using an anti-β-actin antibody (Cell Signaling) as an internal control for protein loading.
Thus, in FIG. 5, SHIP is shown to be recruited to NK inhibitory receptors and to oppose Akt activation in vivo. […] A mock immunoprecipitation of the NK lysates with an IgG2a antibody is analyzed in parallel as a negative control. The results of these immunoprecipitations are representative of two independent analyses of NK-enriched splenocytes. […] Immunoprecipitation of SHIP from NK cell lysates serves as positive control in both (A) and (B). In (A) a one-tenth exposure of the SHIP lane enables the 135/145 kD SHIP isoforms to be distinguished clearly. […] To control for the amount of cell lysate loaded in each sample, the Akt-P blot is stripped and re-probed with an antibody specific for β-actin, GAPDH, and cc tubulin. […] Immunoprecipitation with a murine IgG2a antibody (IgG2a) is analyzed as a negative control and SHIP is immunoprecipitated as a positive control. […]

B1: Ly49G2, mouse NK inhibitory receptor (receptor, UniProt Q60654-2 1-267, looked up)
chain: MSEQEVTYSTVRFHESSRLQKLVRTEEPQRPREACYREYSVPWKLIVIACGILCFLLLVTVALLAITIFQHSQQKHELQETLNCHDNCSPTQSDVNLKDELLRNKSIECRPGNDLLESLSRDQNRWYSETKTFSDSSQHTGRGFEKYWFCYGIKCYYFNMDRKTWSGCKQTCQISSLSLLKIDNEDELKFLQNLAPSDISWIGLSYDNKKKDWVWIDNGPSKLALNTTKYNIRDGLCMSLSKTRLDNGDCDKSYICICGKRLDKFPH
notes: Immunoprecipitated with anti-Ly49G2 (4D11)
Regarding B1, the binding result is “no binding”.

Values taken from US20080076731A1 (UNIVERSITY OF SOUTH FLORIDA, published 2008).
